Measured values as given in paper PMC6771245, “CMKLR1-targeting peptide tracers for PET/MR imaging of breast cancer” (Theranostics, 2019).
*1 amine or outer side, *2 acyl side, *3 side chain or, on linkers, in order; H or OH if unused. Where a SMILES comes first, the peptide text is derived from it. [ ]: non-standard residue; d: D form. The star is where a group is joined. X1 = O=C(O)CN1CCN(CC(=O)O)CCN(CC(=O)NCCCOCCOCCOCCCN*)CCN(CC(=O)O)CC1; DOTA = O=C(O)CN1CCN(CC(=O)O)CCN(CC(=O)*)CCN(CC(=O)O)CC1; Hyp = O=C(O)[C@@H]1C[C@@H](O)CN1; Tic = O=C(O)[C@@H]1Cc2ccccc2CN1; Cha = N[C@@H](CC1CCCCC1)C(=O)O; Cit = NC(=O)NCCC[C@H](N)C(=O)O; Suc = O=C(CCC(=O)[*:2])[*:1]; Octanoyl = CCCCCCCC(=O)*; Ahx = NCCCCCC(=O)O

Assays:
[1] = tested on: DU4475/A549 xenograft model; assay: in vivo; settings: mouse
Description: (§1) For in vivo experiments, at least 8-week-old female athymic NMRI-Foxn1^nu /Foxn1^nu mice (Janvier Labs, Saint-Berthevin, France) were used. Animal care followed institutional guidelines and all experiments were approved by local animal research authorities. For the generation of tumor xenografts, 5 x 10^6 cells of both DU4475 and A549 cells were inoculated subcutaneously into the right and left shoulder, respectively (1:1 phosphate-buffered saline [PBS]/Matrigel Basement Membrane Matrix High Concentration, Corning, Corning, USA). Part of the animals received SW13 lung cancer cells as a CMKLR1-negative control tumor. For the analysis of biodistribution, only data of […] and A549 xenograft tumors are used. Tumors were allowed to grow for two to four weeks (tumor volume > 100 mm^3) after cell inoculation.
(§2) Radiolabeling experiments were performed on a Modular Lab PharmTracer synthesis module (Eckert & Ziegler, Berlin, Germany) which allows fully automated cassette-based labeling of gallium tracers utilizing a pharmaceutical grade ^68Ge/^68Ga generator (GalliaPharm, 1.85 GBq, good manufacturing practice [GMP]-certified; Eckert & Ziegler GmbH, Berlin, Germany). Cassettes were GMP-certified and sterile. They were used without pre-conditioning of the cartridges. The gallium generator was eluted with aqueous HCl (0.1 M, 7 mL) and the eluate was purified on an ion-exchange cartridge followed by elution using 1 mL of 0.1 M HCl in acetone. The peptide-DOTA conjugate (50 µg from a stock solution 1 mg/mL in 10% dimethyl sulfoxide [DMSO] in water) was mixed with 500 µL 0.1 M HEPES buffer (pH 7) and heated for 500 seconds at 95 °C. After the reaction, the mixture was passed through a C-18 cartridge for purification and the tracer was eluted from the cartridge with ethanol. In order to control the quality of radiolabeling, the radiochemical yield, purity, and specific activity for all five peptide-DOTA conjugates and each individual labeling experiment was determined. Overall, a radiochemical yield of 82.1% ± 6.7%, a radiochemical purity of 98.1 ± 4.6% and a molar activity of 8.6 GBq/µmol ± 2.7 GBq/µmol was achieved (Table S1). Before animal injection, the activity was equilibrated to neutral pH using 1 M sodium hydrogen carbonate. It was further diluted with saline to ≤ 10% ethanol.
(§3) Tumor-bearing mice were injected with approximately 10 MBq of ^68Ga-labeled DOTA-peptide or 1 MBq of ^177Lu-labeled DOTA-peptide to the tail vein via a catheter. Mice were sacrificed and dissected one or two hours after injection. Tumor, blood, stomach, pancreas, small intestine, colon, liver, spleen, kidney, heart, lung, muscle and femur samples were weighed and uptake of radioactivity was measured by a gamma counter. To determine the effect of unlabeled ligand on the tumor uptake, 200 nmol CG34 peptide (100-fold excess) was co-injected.

in vivo = settings: female, mouse, iv, 10 MBq, total radioactivity
Description: as §1, §2, §3

[2] = athymic NMRI-Foxn1^nu/Foxn1^nu, liver uptake
[3] = athymic NMRI-Foxn1^nu/Foxn1^nu, DU4475 tumor uptake
[4] = athymic NMRI-Foxn1^nu/Foxn1^nu, blood uptake
[5] = athymic NMRI-Foxn1^nu/Foxn1^nu, heart uptake
[6] = athymic NMRI-Foxn1^nu/Foxn1^nu, kidney uptake
[7] = athymic NMRI-Foxn1^nu/Foxn1^nu, lung uptake
[8] = athymic NMRI-Foxn1nu/Foxn1nu, colon uptake
[9] = athymic NMRI-Foxn1nu/Foxn1nu, femur uptake
[10] = athymic NMRI-Foxn1nu/Foxn1nu, pancreas uptake
[11] = athymic NMRI-Foxn1nu/Foxn1nu, small intestine uptake
[12] = athymic NMRI-Foxn1nu/Foxn1nu, stomach uptake
[13] = athymic NMRI-Foxn1nu/Foxn1nu, tumor-to-blood ratio
[14] = athymic NMRI-Foxn1nu/Foxn1nu, tumor-to-kidney ratio
[15] = athymic NMRI-Foxn1nu/Foxn1nu, tumor-to-liver ratio
[16] = athymic NMRI-Foxn1nu/Foxn1nu, tumor-to-muscle ratio
[17] = athymic NMRI-Foxn1nu/Foxn1nu, tumor-to-pancreas ratio

## CSCC[C@H](NC(=O)CNC(=O)[C@@H]1CCCN1C(=O)[C@H](CC1CCCCC1)NC(=O)[C@H](Cc1ccc(O)cc1)NC(=O)CCCCCNC(=O)CN1CCN(CC(=O)O)CCN(CC(=O)O)CCN(CC(=O)O)CC1)C(=O)N[C@@H](Cc1ccc(O)cc1)C(=O)N[C@@H](C)C(=O)N[C@@H](Cc1ccccc1)C(=O)N[C@H](Cc1ccccc1)C(=O)O [[^68Ga]Ga-DOTA-AHX-CG36, metal not drawn] ({DOTA-Ahx}-Y[Cha]PGMYAF[dF]-OH)
[1]
  difference in uptake between target-positive and target-negative tumor: no clear difference in uptake between target-positive and target-negative tumor
In vivo; [2]
  tissue uptake at 1 h: 6.4 %ID/g
  tissue uptake at 2 h: 4.9 %ID/g

## CCCCCCCC(=O)NCCCC[C@H](NC(=O)CN1CCN(CC(=O)O)CCN(CC(=O)O)CCN(CC(=O)O)CC1)C(=O)N[C@@H](Cc1ccc(O)cc1)C(=O)N[C@@H](CC1CCCCC1)C(=O)N1C[C@H](O)C[C@H]1C(=O)NCC(=O)N[C@@H](CCCNC(N)=O)C(=O)N[C@@H](Cc1ccccc1)C(=O)N[C@H](C)C(=O)N1Cc2ccccc2C[C@H]1C(=O)N[C@@H](CO)C(=O)O [[^68Ga]Ga-DOTA-KCap-CG34, metal not drawn] ({DOTA}-K(Octanoyl)Y[Cha][Hyp]G[Cit]F[dA][Tic]S-OH)
[1]
  DU4475 tumor uptake after two hours as % of the 1 h-value: approx. 88%
  higher uptake in CMKLR1-positive DU4475 tumors than in target-negative A549 tumors: 1.4 fold
In vivo; athymic NMRI-Foxn1^nu/Foxn1^nu, A549 tumor uptake
  tissue uptake at 1 h: 2.3 %ID/g
In vivo; [3]
  tissue uptake at 1 h: 3.3 %ID/g
  tissue uptake at 2 h: 2.9 %ID/g
In vivo; [4]
  tissue uptake at 1 h: 0.6 %ID/g
  tissue uptake at 2 h: 0.2 %ID/g
In vivo; [5]
  tissue uptake at 1 h: 1.1 %ID/g
  tissue uptake at 2 h: 0.8 %ID/g
In vivo; [6]
  tissue uptake at 1 h: 5.8 %ID/g
  tissue uptake at 2 h: 6.5 %ID/g
In vivo; [2]
  tissue uptake at 1 h: 2.2 %ID/g
  tissue uptake at 2 h: 1.8 %ID/g
In vivo; [7]
  tissue uptake at 1 h: 1.7 %ID/g
  tissue uptake at 2 h: 1.2 %ID/g
In vivo; athymic NMRI-Foxn1^nu/Foxn1^nu, muscle uptake
  tissue uptake at 1 h: 0.6 %ID/g
In vivo; athymic NMRI-Foxn1^nu/Foxn1^nu, spleen uptake
  tissue uptake at 1 h: 4.9 %ID/g
In vivo; [8]
  tissue uptake at 1 h: 2.4 %ID/g
  tissue uptake at 2 h: 1.7 %ID/g
In vivo; [9]
  tissue uptake at 1 h: 0.6 %ID/g
  tissue uptake at 2 h: 0.5 %ID/g
In vivo; athymic NMRI-Foxn1nu/Foxn1nu, muscle uptake
  tissue uptake at 2 h: 0.4 %ID/g
In vivo; [10]
  tissue uptake at 1 h: 0.9 %ID/g
  tissue uptake at 2 h: 0.7 %ID/g
In vivo; [11]
  tissue uptake at 1 h: 2.3 %ID/g
  tissue uptake at 2 h: 1.9 %ID/g
In vivo; athymic NMRI-Foxn1nu/Foxn1nu, spleen uptake
  tissue uptake at 2 h: 4 %ID/g
In vivo; [12]
  tissue uptake at 1 h: 1.4 %ID/g
  tissue uptake at 2 h: 1.1 %ID/g
In vivo; [13]
  tissue to tissue ratio at 1 h: 5.6
  tissue to tissue ratio at 2 h: 18.2
In vivo; [14]
  tissue to tissue ratio at 1 h: 0.7
  tissue to tissue ratio at 2 h: 0.6
In vivo; [15]
  tissue to tissue ratio at 1 h: 1.6
  tissue to tissue ratio at 2 h: 1.8
In vivo; [16]
  tissue to tissue ratio at 1 h: 6.6
  tissue to tissue ratio at 2 h: 7.2
In vivo; [17]
  tissue to tissue ratio at 1 h: 3.7
  tissue to tissue ratio at 2 h: 4.3

## C[C@@H](NC(=O)[C@H](Cc1ccccc1)NC(=O)[C@H](CCCNC(N)=O)NC(=O)CNC(=O)[C@@H]1C[C@@H](O)CN1C(=O)[C@H](CC1CCCCC1)NC(=O)[C@H](Cc1ccc(O)cc1)NC(=O)CCC(=O)NCCCOCCOCCOCCCNC(=O)CN1CCN(CC(=O)O)CCN(CC(=O)O)CCN(CC(=O)O)CC1)C(=O)N1Cc2ccccc2C[C@H]1C(=O)N[C@@H](CO)C(=O)O [[^68Ga]Ga-DOTA-TTDS-CG34, metal not drawn] ({X1-Suc}-Y[Cha][Hyp]G[Cit]F[dA][Tic]S-OH)
[1]
  difference in uptake between target-positive and target-negative tumor: no clear difference in uptake between target-positive and target-negative tumor
